For one molecule, Kd results are on record in patent publication US20210340246A1 (GlaxoSmithKline, published 2021).

This test concerns the target T1, human IL-5 (human, UniProt P05113 20-134).
T1 construct: The IL-5 reagent of the SPR assay is not described further; also called interleukin-5; soluble IL-5
The test can be described thus: standard surface plasmon resonance assays. On the technique in general: Surface plasmon resonance follows binding to a sensor surface in real time, without labels.

B1: mepolizumab (monoclonal anti-IL-5 antibody; unstressed composition / control samples) (antibody, human IgG1, kappa)
heavy: not shown
light: not shown
modifications: N-terminal Gln cyclised to pyroglutamate (typically >95.0%); C-terminal K449 clipped (typically >98.0%); N299 N-glycosylated
notes: Batches MDS1 T04L003S and MDS2 T0413010; also called Oxidation Control; Light Exposure Control
For orientation: Kd means the constant that tells how readily two partners part at equilibrium. A low value points to a tighter complex. In turn, B1 came in with a Kd of less than 0.0229 nM.
